The supplement of paper PMC12042874
± gives the uncertainty stated by the source.

Experiment: amyloid nucleation score (Sup35N fusion, yeast selection) (log enrichment); library NNK2; higher = more nucleation; inactive = no reads after selection
Outline: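 The nucleation score is the log enrichment of output over input reads, calculated with DiMSum and centred on the mode score of non-aggregating sequences. Sequences with under 100 input reads were excluded. Reads came from Illumina sequencing of plasmid inserts from psi-negative yeast expressing Sup35N fused to peptides of 20 random codons, induced 24 hours with 100 μM copper sulfate and grown 7 days at 30°C without adenine and uracil.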

Substance	amyloid nucleation score
ITFKISNGVWYLPKRL	6.629 ± 0.038
CSSYHLEYKCYKHLLWFQSR	-0.306 ± 0.3
TSSWIMIRS	1.52 ± 0.19
GFLELCMFKVFFQRCARTIS	-1.04 ± 1.1
RERCC	inactive
KHYAL	0.169 ± 0.8
YRYLLVLSWRSMFAHRLLPS	1.5 ± 0.5
PIWWLL	-0.822 ± 0.79
SGCWIGRFLSSGVSMKVHVS	1.23 ± 0.4
DVVNVSYGPVITFMSVFRVS	7.556 ± 0.051
DHCDAVNSFEEWLMRGVPYN	-0.06 ± 0.45
IRTLMYISHSAGGYLL	-0.576 ± 0.44
ILWPLHVWYVICYRSNMWSY	5.27 ± 0.077
RRDSVKCVSARGRISLLVSR	2.8 ± 0.056
YMSLNKTAVTCVCHM	-0.425 ± 0.5
EGIVSMFVIRVYV	0.63 ± 0.46
VLIALKLFWIVQWYICAICV	-0.099 ± 0.39
TLFSMVNSTLNGWWIMT	6.84 ± 0.061
RDIRWIYEDTLISSGIWRSL	2.62 ± 0.11
CAIKFPYQFTYLNINNQ	6.229 ± 0.044
WIKLAFDWKQF	-1.18 ± 0.55
RLRGFIPLCTYIFPNFRGLL	-0.718 ± 0.65
EHVVSSRRLYLQGDILLNSQ	inactive
IHKETGLEIVARRKVHFDGG	0.524 ± 0.26
RVFNLLYVLNWNAKSLSWMS	4.32 ± 0.11

Substance	amyloid nucleation score
IVHWSLHFMRGKSAYYQYVV	inactive
QILPWGVSMEKL	-0.492 ± 0.41
CKIEGWCTGCGSRQLRARAE	1.09 ± 0.34
NMTVFT	-0.202 ± 0.22
CHQVI	0.383 ± 0.74
EACLNGAA	0.638 ± 0.18
NMMGMAYSV	0.063 ± 1.1
CFIENILRFGSW	3.1 ± 0.052
DNQGSLDNSSLCTVYSGFSV	inactive
VRNKMSGPLMFIIGLDLSCN	inactive
VEVSECVHVIMYFRISYNKL	3.4 ± 0.15
GPTRSYRLAASGAGEGCKTW	2.09 ± 0.1
VFYSWKKLVSVLTSRYGFHV	-0.965 ± 0.78
CCVDDRWVDARPWGSRNSRA	0.491 ± 0.57
YLLSMVRKDPVSRVSLKKGW	0.566 ± 0.66
VGLWLTRVPPFVYGYRGSVS	0.165 ± 1
FHAYTGCVWVTCQYGWRRDT	1.9 ± 0.15
RSSTLNRRKNKGGSTNVDCL	0.355 ± 0.56
PRCRVAR	0.305 ± 1
SVIHREIELVFILI	4.4 ± 0.087
SCRGDKQERKPIHYVRHIWY	-0.798 ± 0.24
RFNMMKSKQMELSN	-0.504 ± 0.46
CSRLG	-1.39 ± 1.1
GYYGARFLVFKFMVRRWMMT	inactive
TDLWSNYLSGNLVENFITCL	-1.96 ± 1.1

Substance	amyloid nucleation score
LCCLMDFMITNLITFQRMTS	4.33 ± 0.11
VMGGDVYTAFTDAEDVDSWG	0.398 ± 0.22
KPFELEIRGKGQRHVEVV	1.61 ± 0.26
WEASCVNPH	-0.191 ± 0.65
VCACKIYKRHTLGSR	-0.573 ± 0.76
DMNLRLSEWVDFCSIGLFVK	-0.272 ± 0.35
SMFIVHSCSTWLTNNGLNHM	3.19 ± 0.16
NSICSNLDDSCEAKRTSRFH	-0.113 ± 0.65
INLRIVSPIDLIVRWEDPTW	-1.44 ± 0.33
VLSYMFVYETMSEIFTFLVG	-0.586 ± 0.49
CCSIVSTYRKYLVNRTRWIF	-0.982 ± 0.42
ICKFFSIGVH	1.14 ± 0.68
GVCFSFVFM	8.487 ± 0.064
RLALY	1.45 ± 0.25
FYLSLLYGRSRQIGLLIYFQ	0.974 ± 0.15
IGCSWSKQELVISNLLVFLF	-1.52 ± 0.62
QKYWCDFSNK	inactive
YLIRVHICGCKYVERLFHSV	inactive
FYMYAFNYYSFY	2.91 ± 0.086
LTIFNYSFWKVDY	0.91 ± 0.18
TLRHSKFTSIPVIETGLCGV	-1.44 ± 1.1
SVKCWRWFGA	1.73 ± 0.27
RSQGLWMHAGPSFSVGYPFG	3.9 ± 0.085
HHIGGMIS	-0.09 ± 0.3
FNLSGWLMSSIRNNFLVPG	-1.01 ± 0.61

Substance	amyloid nucleation score
LDYRPCEDNDDVDVSEILHG	0.224 ± 0.25
KLHVGNCSFSKPSPAQAGSL	0.34 ± 0.29
SGLCSCTVACVGFVHFDARV	5.38 ± 0.084
YMCKVSPLRILSF	2.66 ± 0.056
LVCSNWCIVPFMYGTRHRKE	9.299 ± 0.03
VNMLTGLSKDK	-0.142 ± 0.23
FSVRLISFRSSLLLMSQDLL	0.138 ± 1.1
NHRKVLMVVVLAVHNMGCCI	3.75 ± 0.15
LSHLISFRLTTTSNFRFWDH	3.15 ± 0.093
VMFLFGGCTDNS	0.382 ± 0.8
NVLWVDSSLFRNLRPTSERE	0.276 ± 1
AAILFSGDVLCLLRCYIAIK	-0.291 ± 0.74
TFLIGTV	-1.01 ± 0.5
NVMSDYTFANTSITSCCY	-1.26 ± 0.64
MVIGNLGLLLEGLRVEYLNH	inactive
EPGRRSYSWFCITRVFVMR	-0.171 ± 1
TTSGNTIHIYVIQLSIQKFS	5.39 ± 0.06
WDPQCGSLPFFLLNAEAFET	inactive
VVLRVLISFSHSTIRLEGLV	2.84 ± 0.093
CRARNCVRLW	0.165 ± 0.65
SSTPMCVPMYCS	inactive
SFDGGRDGRLMYIGRMLEEL	-0.067 ± 0.62
LLSIYVSSWKLRGSAPG	-0.337 ± 0.63
RRYGKW	1.67 ± 0.41
NSYWWFANK	2.54 ± 0.08

Substance	amyloid nucleation score
RGREL	-1.66 ± 0.54
TCGRYSYSWVFSESKS	inactive
SYDGERVI	0.444 ± 0.28
TLKVRNLNVQEFVVSPNQRH	4.99 ± 0.088
EYMAITSFQKLFPHWFLSTE	inactive
YGSWSPHEAGVYT	inactive
YVSGGVKAFSFLSVCYLSPW	7.586 ± 0.066
ESTWVCIFSRVLYGGYCGDQ	0.244 ± 0.33
LDSGHNGDVNGG	-0.45 ± 0.64
WLMKINRT	0.129 ± 0.26
NLKRMFYVGCSIVSRKLIGR	-0.095 ± 0.5
FQLYT	0.238 ± 0.29
SGYMMNFAA	1.24 ± 0.32
DNFYCHHVDLFSWMIRADLA	-0.847 ± 0.64
LTWFWMHSYSSFRIENHVDD	2.18 ± 0.12
KVPDKGEKLCSLLAFGYQG	0.736 ± 0.8
VCNFLYNGLEFVNLECFWR	inactive
KISCKKNWGAYVPF	-0.594 ± 1.1
MMSEVLKDVSCHFIPLGGQV	-0.694 ± 0.48
ECLKYRYSFFNWTSTSVFHA	-0.435 ± 0.79
FVVIWAMDIDVLWSMGGKID	5.46 ± 0.061
GSRYLIGVEYE	0.319 ± 0.56
LSIMHYIIYRLDFAFSWKGG	-1.05 ± 1.1
QWRFGRG	1.16 ± 0.26
EQRGLASCLTIHHSRWCYTK	0.025 ± 0.33

Substance	amyloid nucleation score
PFSLVTSITFFWSIMCIYAM	0.57 ± 0.81
KLIMFCDMLKVRSNNFRSRK	5.55 ± 0.077
YCLVSIKMCYGYVVGSLVGW	2.63 ± 0.068
VSLRSDSGLGITVLMPPSRS	1.6 ± 0.44
YYSVMWYLMERAIN	-0.975 ± 0.35
PHLTMFKARYIDTFAPRS	-0.672 ± 0.5
GMIRLLGLFIKKRWRSNTCL	-0.238 ± 0.5
LYPRPPYSRWIIANHSNWGS	0.218 ± 0.8
FWRDLPAQWTRPKAENLVLK	1.23 ± 0.32
LDLSDHWACQIIGVL	0.394 ± 0.43
FDVSFILSL	-1.34 ± 1
SMNSLSIVYLDYASGAWMDL	-0.127 ± 0.49
IFISRVNDFTVMGGDWSFRG	3.64 ± 0.083
TITMFHYLRSLSGNSDYGLG	2.31 ± 0.1
AAFLNWVVCEIENEEGMSWL	inactive
WVWGIGSFRRSFQCWWWFSN	-1.86 ± 0.73
YSYEHTRWTSLGGWHLR	4.66 ± 0.069
STGSNFDESSKQCFAFICKK	inactive
SDRMELWKNESRLYIGMAVR	0.451 ± 0.49
RYLETYHSHACVSFTERN	0.606 ± 0.45
IYNMVSCIIDLCYDKTRHSR	3.85 ± 0.12
SPVVADQPWCSI	0.321 ± 0.64
NDHSVHINYLIIGAIHNTVN	8.405 ± 0.065
YLCLTFCNIDNLQVMFKSAY	8.209 ± 0.034
RVRSSLVDLASVGSILLTAR	-0.264 ± 0.41

Substance	amyloid nucleation score
STVFRQSLE	0.269 ± 0.22
AAIRH	-0.328 ± 0.49
TSKWQRNLFGDGSLKEFTGE	-0.712 ± 1.1
LIVSKWVHLWGYNALDNKEK	-1.65 ± 0.62
CNVSSELCYYGMSTYIKNPM	-0.947 ± 0.32
TFSFFATVDQMFCCVGRCEW	8.132 ± 0.03
VLLEIY	-0.384 ± 0.65
FKGSDHCSKCRQVGEFVFST	-0.707 ± 1.1
LVKNSIKRGYL	inactive
LFSMSL	-1.27 ± 1
RPLPSFPNNRSERSNTSF	0.851 ± 0.57
WLIKKASRYSN	-0.608 ± 1.1
HRAWSSVCSKYSSTGTRNLI	2.99 ± 0.14
GPTNVIRTISRDTTIV	-0.646 ± 0.39
FLYPRYLVVMKHVLAGRCVA	inactive
TLRIWYCWHDSAYTSSDHII	1.45 ± 0.2
NMFTETDRILVLFIRCLVDC	0.305 ± 1
FFIWKVLDWHLNSRSYRWFG	-0.325 ± 0.76
WASFTSACRRLLSPCTPRSG	5.22 ± 0.1
YRVYLQRHSGA	3.78 ± 0.069
ITDGENSFAFLSNRDSS	inactive
YFSFTGPHLDVA	-0.937 ± 0.34
